Data from patent US20250243262A1.

Assays:
[1] = molecular target: rPcrV protein (recombinant Pseudomonas PcrV) (Pseudomonas aeruginosa); test: SPR (Bio-Rad ProteOn XPR36); antibody captured, rPcrV as analyte; table under the sensorgram
[2] = molecular target: rPcrV protein (recombinant Pseudomonas PcrV) (Pseudomonas aeruginosa); test: SPR (Bio-Rad ProteOn XPR36); antibody captured on GLC sensor chip with anti-human IgG, rPcrV injected at multiple concentrations

Kd [1]: 0.143 nM
koff [1]: 0.000116 s⁻¹
kon [1]: 808000 M⁻¹ s⁻¹
Kd [2]: 0.143 nM
koff [2]: 0.000116 s⁻¹
kon [2]: 808000 M⁻¹ s⁻¹
B1: V2L2-GL (V2L2-germlined mAb) (antibody, V domains shown)
VH: EVQLLESGGGLVQPGGSLRLSCAASGFTFSSYAMNWVRQAPGKGLEWVSAITISGITAYYTDSVKGRFTISRDNSKNTLYLQMNSLRAEDTAVYYCAKEEFLPGTHYYYGMDVWGQGTTVTVSS
VL: AIQMTQSPSSLSASVGDRVTITCRASQGIRNDLGWYQQKPGKAPKLVIYSASTLQSGVPSRFSGSGSGTDFTLSISSLQPDDFATYYCLQDYNYPWTFGQGTKVEIK
